The results in this text go back to patent US20220073643A1 (NANJING GENSCRIPT BIOTECH, published 2022).

The labels stand for the following.
B1: 231H4G11 (antibody, V domains shown)
VH: QAYLQQSGAELVRSGASVKMSCKASGYTFTSHNIHWVKQTPGQGLEWIGYISPGNGYTNYNQKFRGKATLTADTSSSTAYMQISSLTSEDSAVYFCTRDYYGNSFAYWGQGTLVTVSA
VL: DIVMTQSPSSLTEKAGERVSMSCKSSQSLFNSGSQKNYLTWYQQKPGQPPKLLIYWASTRESGVPDRFSGSGSGTDFTLTISSVQAEDLAVYYCQNNYWFPFTFGAGTKLELK
B2: 232C5E3 (antibody, V domains shown)
VH: QAYLQQSGAELVRSGASVKMSCKASGYTFTSHNIHWIKQTPGKGLEWIGYIYPGNGGTNYNQKFKAKATLTADTSSSTAYMQISSLTSEDSAVYFCARDYYGNSFAYWGQGTLVTVSA
VL: DIMMTQSPSSLTETAGEKVSMSCKSSQSLLNSGNQKNYLTWYQQKPGQPPKLLIYWASTRESGVPDRFSGSGSGTDFTLTISSVQAEDLAVYYCQNGYRFPFTFGAGTKLELK
B3: 235A10C9 (antibody, V domains shown)
VH: QAYLQQSGAELVRSGASVKMSCKASGYTFASHNMHWVKQTPGQGLEWIGYIYPGNSGTKYNQKFTGKATLTADTSSSTAYMQITSLTSEDSAVYFCARDYYGNSFAYWGQGTLVTVSA
VL: DIVMTQSPSSLTEKAGEKVSMRCKSSQSLLNSGNQKNYLTWYQQKPGQPPKLLIYWASTRESGVPDRFTGSGSGTDFTLTISSVQADDLAVYYCQNDYMFPFTFGAGTKLELK
B4: 226A4B5 (antibody, V domains shown)
VH: QAYLQQSGAELVRSGASVRMSCKASGFTFTSYNIHWVKQTPGQGLEWIGYIYPGSGGSNYNQKFMGKATLTADTSSSTVYMQISSLTSEDSAVYFCATGRGFAYWGQGTLVTVSA
VL: DIVMTQSPSSLTVTAGEKVTMSCKSSQSLFNSGNQKNYLTWYQQKPGQPPKLLIYRASTRESGVPDRFTGSGSGTDFTLTISSVQAEDLAVYYCQNDYSYPLTFGTGTKLELK
B5: 185F2G12 (antibody, V domains shown)
VH: QAYLQQSGAELVRSGASVKMSCKASGYTFTSYNMHWVRQTPGQGLEWIGYIYPGNGGTNYSQKFKGKASLTADTSSTTAYMQISSLTSEDSAVYFCATGRGFAYWGQGTLVTVSA
VL: DIVMTQSPSSLTVTAGEKVTLSCKSSQSLFNTGNQKNYLTWYQQKPGQPPKLLIFRASTRESGVPDRFTGSGFGTDFTLTISSVQAEDLAVYYCQNDFSYPLTFGAGTKLELK
B6: 239H12G9 (antibody, V domains shown)
VH: QAYLQQSGAELVRSGASVKMSCKASGYTFTSHNIHWVKQTPGQGLEWIGYIYPGNGAPNYNQKFRGKATLTADTSSSTAYMQISSLTSEDSAVYFCARDYYGNSFVYWGQGTLVTVSA
VL: DIVMTQSPSSLTEKAGEKVSMSCKSSQSLLNSGNQKNYLTWYQQKPGQPPKLLIYWASTRESGVPDRFTGSGSGTDFTLTISSVQAEDLAVYYCQNDYRYPFTFGAGTKLELK
B7: 234E1F12 (antibody, V domains shown)
VH: QAYLQQSGAELVRSGASVKMSCKASGYTFTSHNMHWVKQTPRQGLEWIGYIYPGNGDTNYNQKFKGKATLTADTSSSTAYMQISSLTSEDSAVYFCTRDYYGNSFAYWGQGTLVTVSA
VL: DIVMTQSPSSLTEKAGERVSMSCKSSQSLFNSGNQKNYLTWYQQKPGQPPKLLIYWASTRESGVPDRFTGSGSGTDFTLTISSVQAEDLAVYYCQNAYWYPFTFGAGTKLELK
B8: 186F7E10 (antibody, V domains shown)
VH: EVMLVESGGGLVKPGGSLKLSCAASRFTLNSYAMSWIRQTPEKKLEWVATITSGVSHTYYFDSVKGRFTISRDTAKNTLNLQMNSLRSEDTAVYYCARLYYGNSLDYWGQGTSVTVSS
VL: DIVMTQSPSSLTVTAGEKVTVSCKSSQSLLNSGNQKNYLTWYQQKPGQPPKLLIYWASTRESGVPDRFTGSGSGTDFTLTISSVQSEDLAVYYCQNNYIYPLTFGAGTTLELK
B9: 232F1E4 (antibody, V domains shown)
VH: QVQLKESGPGLVAPSQSLSITCTVSGFALTTYGVSWVRQPPGKGLEWLGVIWGDGSTHYHSALISRLSIRKDNSKSQVFLKLNSLQTDDTATYYCAKPGRGNAMDYWGQGTSVTVSS
VL: DIVMSQSPSSLTVTAGEKVTMSCKSSQSLLNSGNQKNYLTWYQQKPGQSPKLLIYWASTRESGVPDRFTGSGSGTDFTLTISSMQAEDLAVYYCQNDYIYPLTFGAGTMLELK
B10: 233D5E5 (antibody, V domains shown)
VH: QAYLQQSGAELVRSGASVKMSCKASGYTFTSHNMHWVKQTPRQGLEWIGYIYPGNGDTNYNQKFKGKATLTADTSSSTAYMQISSLTSEDSAVYFCTRDYYGNSFAYWGQGTLVTVSA
VL: DIVMTQSPSSLTEKAGERVSMSCKSSQSLFNSGNQKNYLTWYQQKPGQPPKLLIYWASTRESGVPDRFTGSGSGTDFTLTISSVQAEDLAVYYCQNAYWYPFTFGAGTKLELK
B11: 237D2A4 (antibody, V domains shown)
VH: QVQLKESGPGLVAPSQSLSITCTVSGFSLTSYGVSWVRQPPGKGLEWLGVIWGDGSTNYHSTLISRLRISKDKSKSQVFLKLNSLQTDDTATYYCAKAGRGNALDYWGQGTSVTVSS
VL: DIVMTQSPSSLTVTAGEKVTMSCKSSQSLLNSGNQKNYLTWYQQKPGQPPKLLIYWASTRESGVPDRFTGSGSGTDFTLTISSVQAEDLAVYYCQNDYSFPLTFGAGTKLELK
B12: 234B9D4 (antibody, V domains shown)
VH: EIQLQQSGPDLMKPGSSVKISCTASGYSFTSYYIHWVKQSHGKTLEWIGYIDPFNGGTRYNQKFEGKAALTVDKSSTTAYMHLTSLTSDDSAVYYCASLRFFTYWGQGTLVTVSA
VL: DIVMTQSPSSLTVTAGEKVTMTCKSSQSLLNSGNQENYLTWYQQKPGQPPKLLISRASTRQSGVPDRFTGSGSGTDFTLTISSVQAEDLAVYYCQNDYSYPLTFGAGTKLELK
B13: 240F8G2 (antibody, V domains shown)
VH: QAYLQQSGAELVRSGASVKMSCKASGYTFTNYNIHWVKQTPGQGLEWIGYIYPGNGGNYYNQKFKGKATLTADTSSSTAYMQISSLTSEDSAVYFCARDYYGNSFAYWGQGTLVTVSA
VL: DIVVTQSPSSLTVTAGEKVTMNCKSSQSLLNSGNQKNYLTWYQQKPGQPPKLLIYWASTRESGVPDRFTGSGSGTDFTLTISSVQAEDLAIYYCQNDYYYPLTFGAGTKLELK
B14: 240D6F5 (antibody, V domains shown)
VH: QAYLQQSGAELVRSGASVKMSCKASGYTFTSHNMHWVKQTPGQGLEWIGYIYPGNGGTNYNQKFKGKATLTADPSSSTAYMQINSLTSEDSAVYFCTRDYYGNSFAYWGQGTLVTVSA
VL: DIVMTQSPSSLTEKAGERVSMSCKSSQSLFNSGNQKNYLTWYQQKPGQPPKLLIYWASTRESGVPDRFTGSGSGTDFTLTISSVQAEDLAVYYCQNDYRYPFTFGAGTKLELK
B15: 234C9G5 (antibody, V domains shown)
VH: QAYLQQSGAELVRSGASVKMSCKASGYAFTSHNMHWVKQTPGQGLEWIGYISPGNGYTNYNQKFRGKATLTADTSSSTAYMQIGSLTSEDSAVYFCTRDYYGNSFAYWGQGTLVTVSA
VL: DIVMTQSPSSLTEKAGERVSMSCKSSQSLFNSGNQKNYLTWYQQKPGQPPKLLIYWASTRESGVPDRFTGSGSGTDFTLTISSVQAEDLAVYYCQNNYWFPFTFGAGTKLELK
B16: 234A10F7 (antibody, V domains shown)
VH: QVQLQQSGAELVKPGASVKLSCKASGYTFTSFGINWLRQRPEQGLEWIGWIFPGDGNSKYNENFKGKATLTTDKSSSTAYMQLTRLTSEDSAVYFCARFYYGNSFAYWGQGTLVTVSA
VL: DIVMTQSPSSLTVTTGQKVTMSCKSSQSLLNSGNQKNYLTWYQQKPGQPPKLLIYWAATRESGVPDRFTGSGSGTDFTLTISSVQAEDLAVYYCQNDYFYPFTFGAGTKLELK
B17: 232D7C8 (antibody, V domains shown)
VH: QAYLQQSGAELVRSGASVKMSCKASGYTFTSHNMHWVKQTPGQGLEWIGYIYPGNGGTNYNQKFKGKATLTADTSSSTAYMQISSLTSEDSAVYFCARDYFGNSFAYWGQGTLVTVSA
VL: DILMTQSPSSLTATAGEKVSMSCKSSQSLFNSGNQRNYLTWYQQRPGQPPKLLIYWASTRESGVPDRFTGSGSGTDFTLTISSVQAEDLAVYYCQNDYRYPFTFGAGTKLELK
B18: 240A8E7 (antibody, V domains shown)
VH: QAYLQQSGAELVRSGASVKMSCKASGYTFTNYNIHWVKQTPGQGLEWIGYIYPGNGDNYYNQKFKGKATLTADTSSSTAYMQISSLTSEDSAVYFCARDYYGNSFAYWGQGTLVTVSA
VL: DVVMTQSPSSLTVTAGEKVTMNCKSSQSLLNSGNQKNYLTWYQQKPGQPPKMLIYWASTRESGVPDRFTGSGSGTDFTLTISSVQAEDLAIYYCQNDYYYPFTFGAGTKLELK
B19: 231C11E9 (antibody, V domains shown)
VH: EVMLVESGGGLVKPGGSLKLSCAASGFTFNNYVMCWVRQTPEKRLEWVATISSGNFYTYYPDSVKGRFTISRDNAKNTLYLQMSSLRSEDTAIYYCASLGRGNALDNWGQGTSVTVSS
VL: DIVMTQSPASLTVTAKEKVTMSCRSSQSLLNSGNQKNYLTWYQQKPGQPPKLLIYWASTRESGVPDRFTGSGSGTDFTLTISSVQAEDLAVYYCQNDYSYPFTFGSGTKLEIK

In this experiment the target is human Claudin18.2 (human). The experiment in a line: cell-based or functional assay.
In the case of B1, the “CDC % Relative activity” value came out at 88% and the “CDC EC50” value was 1.48 µg/mL.

On to B2, for which the “CDC % Relative activity” value amounted to 226% and the “CDC EC50” value was 0.575 µg/mL.

Turning to B3, the “CDC % Relative activity” value turned out to be 137% and the “CDC EC50” value came out at 1.01 µg/mL.

On to B4, for which the “CDC % Relative activity” value turned out to be 73% and the “CDC EC50” value is 1.78 µg/mL.

Regarding B5, the “CDC % Relative activity” value came out at 543% and the “CDC EC50” value is 0.291 µg/mL.

On to B6, for which the “CDC % Relative activity” value is 102% and the “CDC EC50” value stood at 1.36 µg/mL.

For the molecule B7, the “CDC % Relative activity” value amounted to 126% and the “CDC EC50” value worked out at 1.1 µg/mL.

On to B8, for which the “CDC % Relative activity” value was 124% and the “CDC EC50” value came out at 1.27 µg/mL.

As to B9, the “CDC % Relative activity” value was found to be 74.9% and the “CDC EC50” value came to 1.74 µg/mL.

Turning to B10, the “CDC % Relative activity” value is 87.3% and the “CDC EC50” value amounted to 1.49 µg/mL.

For B11, the “CDC % Relative activity” value is 629% and the “CDC EC50” value came out at 0.221 µg/mL.

For B12, the “CDC % Relative activity” value came to 485% and the “CDC EC50” value worked out at 0.287 µg/mL.

Take B13: the “CDC % Relative activity” value amounted to 126% and the “CDC EC50” value amounted to 1.1 µg/mL.

B14: the “CDC % Relative activity” value stood at 119% and the “CDC EC50” value is 1.17 µg/mL.

On to B15, for which the “CDC % Relative activity” value stood at 175% and the “CDC EC50” value came out at 0.794 µg/mL.

On to B16, for which the “CDC % Relative activity” value was 62% and the “CDC EC50” value stood at 2.1 µg/mL.

For the molecule B17, the “CDC % Relative activity” value was 88.9% and the “CDC EC50” value is 1.46 µg/mL.

For B18, the “CDC % Relative activity” value was found to be 120% and the “CDC EC50” value came to 1.16 µg/mL.

As for B19, the “CDC % Relative activity” value stood at 83.7% and the “CDC EC50” value came out at 1.55 µg/mL.
